Where no end group is shown, it is not given here.
Tests used:
Assay in all cases: cell-based or functional assay
[1] = biological target: GPR109B (UniProt P49019 1-387)
[2] = biological target: C5L2 (UniProt Q9P296 1-337)
[3] = biological target: CXCR6 (UniProt O00574 1-342)
[4] = biological target: T1, TBXA2R (UniProt P21731 1-343, limits assumed)
T1 sequence (looked up): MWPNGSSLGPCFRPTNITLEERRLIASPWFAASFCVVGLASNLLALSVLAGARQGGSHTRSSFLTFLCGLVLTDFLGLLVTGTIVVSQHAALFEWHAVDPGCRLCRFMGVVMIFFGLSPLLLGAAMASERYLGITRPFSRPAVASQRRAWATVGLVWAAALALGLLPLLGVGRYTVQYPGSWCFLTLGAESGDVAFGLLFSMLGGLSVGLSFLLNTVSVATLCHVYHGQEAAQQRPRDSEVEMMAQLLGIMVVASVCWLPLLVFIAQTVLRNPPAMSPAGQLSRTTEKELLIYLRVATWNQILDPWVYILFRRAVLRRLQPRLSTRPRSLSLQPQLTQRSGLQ

[5] = biological target: T2, C3AR1 (UniProt Q16581 1-482)
T2 sequence (looked up): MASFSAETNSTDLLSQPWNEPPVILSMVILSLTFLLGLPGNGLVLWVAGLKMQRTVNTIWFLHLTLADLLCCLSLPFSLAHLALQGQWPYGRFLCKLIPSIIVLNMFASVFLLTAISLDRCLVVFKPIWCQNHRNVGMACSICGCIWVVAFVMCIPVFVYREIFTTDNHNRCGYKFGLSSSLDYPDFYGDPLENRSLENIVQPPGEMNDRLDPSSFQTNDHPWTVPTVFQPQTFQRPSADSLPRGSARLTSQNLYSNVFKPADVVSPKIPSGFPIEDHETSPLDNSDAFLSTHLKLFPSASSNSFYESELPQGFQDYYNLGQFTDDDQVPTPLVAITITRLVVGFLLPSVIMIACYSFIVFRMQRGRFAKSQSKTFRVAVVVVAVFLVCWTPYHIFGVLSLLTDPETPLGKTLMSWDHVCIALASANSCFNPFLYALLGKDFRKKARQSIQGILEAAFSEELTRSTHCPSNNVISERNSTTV

[6] = biological target: CNR2 (UniProt P34972 1-360)
[7] = biological target: T3, GPR1 (UniProt P46091 1-355)
T3 sequence (looked up): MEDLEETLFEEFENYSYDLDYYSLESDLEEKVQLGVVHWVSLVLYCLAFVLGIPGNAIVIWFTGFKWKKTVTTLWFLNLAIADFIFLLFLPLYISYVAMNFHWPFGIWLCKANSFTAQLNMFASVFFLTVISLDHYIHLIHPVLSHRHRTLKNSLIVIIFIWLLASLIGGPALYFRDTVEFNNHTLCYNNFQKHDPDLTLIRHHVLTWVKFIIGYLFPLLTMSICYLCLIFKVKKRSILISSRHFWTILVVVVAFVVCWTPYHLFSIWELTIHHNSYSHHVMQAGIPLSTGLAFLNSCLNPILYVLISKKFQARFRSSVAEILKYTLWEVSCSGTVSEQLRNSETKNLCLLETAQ

[8] = biological target: T4, FPRL1 (UniProt P25090 1-351)
T4 sequence (looked up): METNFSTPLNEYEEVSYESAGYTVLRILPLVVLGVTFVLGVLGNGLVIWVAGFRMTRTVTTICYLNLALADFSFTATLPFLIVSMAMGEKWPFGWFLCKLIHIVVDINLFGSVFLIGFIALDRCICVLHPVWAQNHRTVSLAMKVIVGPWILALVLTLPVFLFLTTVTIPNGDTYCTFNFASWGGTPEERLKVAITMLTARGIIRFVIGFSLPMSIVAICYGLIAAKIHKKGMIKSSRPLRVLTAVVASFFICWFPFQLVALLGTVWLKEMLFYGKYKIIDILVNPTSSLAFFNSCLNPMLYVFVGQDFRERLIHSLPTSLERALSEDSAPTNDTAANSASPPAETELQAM

[9] = biological target: T5, HTR1F (UniProt P30939 1-366)
T5 sequence (looked up): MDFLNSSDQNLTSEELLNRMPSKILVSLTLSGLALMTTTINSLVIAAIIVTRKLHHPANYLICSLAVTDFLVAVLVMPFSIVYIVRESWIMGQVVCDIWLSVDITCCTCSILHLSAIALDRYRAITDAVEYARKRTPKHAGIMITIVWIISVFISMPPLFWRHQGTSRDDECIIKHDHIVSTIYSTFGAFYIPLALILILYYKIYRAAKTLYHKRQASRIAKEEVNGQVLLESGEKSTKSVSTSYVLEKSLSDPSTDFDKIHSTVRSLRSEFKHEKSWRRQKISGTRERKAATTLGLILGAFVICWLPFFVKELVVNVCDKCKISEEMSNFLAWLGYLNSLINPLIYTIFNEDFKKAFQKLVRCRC

[10] = biological target: T6, CHRM1 (UniProt P11229 1-460)
T6 sequence (looked up): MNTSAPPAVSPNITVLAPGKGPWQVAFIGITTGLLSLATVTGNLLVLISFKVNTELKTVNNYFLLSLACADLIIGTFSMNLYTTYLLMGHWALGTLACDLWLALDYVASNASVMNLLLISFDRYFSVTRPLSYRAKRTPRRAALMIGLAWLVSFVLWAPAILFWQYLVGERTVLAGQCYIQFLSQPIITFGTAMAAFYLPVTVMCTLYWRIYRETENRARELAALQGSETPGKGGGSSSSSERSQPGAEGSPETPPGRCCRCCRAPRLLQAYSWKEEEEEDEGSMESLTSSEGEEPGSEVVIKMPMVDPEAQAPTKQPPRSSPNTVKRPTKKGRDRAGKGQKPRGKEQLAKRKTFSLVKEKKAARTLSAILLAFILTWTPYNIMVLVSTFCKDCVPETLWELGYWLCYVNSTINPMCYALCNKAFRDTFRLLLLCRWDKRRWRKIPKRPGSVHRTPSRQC

[11] = biological target: OXER1 (UniProt Q8TDS5 1-384, limits assumed)
[12] = biological target: GCGR (UniProt P47871 26-477)
[13] = biological target: CXCR7 (UniProt P25106 1-362)
CXCR7, sequence (P25106 whole entry): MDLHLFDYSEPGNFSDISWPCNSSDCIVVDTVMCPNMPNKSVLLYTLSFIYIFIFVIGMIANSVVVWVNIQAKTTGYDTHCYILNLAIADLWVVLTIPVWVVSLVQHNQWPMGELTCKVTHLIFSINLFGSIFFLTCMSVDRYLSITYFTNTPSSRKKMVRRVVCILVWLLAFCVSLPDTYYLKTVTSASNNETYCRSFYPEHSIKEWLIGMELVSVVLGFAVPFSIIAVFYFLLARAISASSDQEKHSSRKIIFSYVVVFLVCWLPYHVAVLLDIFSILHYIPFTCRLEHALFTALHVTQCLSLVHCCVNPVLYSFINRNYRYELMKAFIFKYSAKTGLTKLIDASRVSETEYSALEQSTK

CXCR6, sequence (O00574 whole entry): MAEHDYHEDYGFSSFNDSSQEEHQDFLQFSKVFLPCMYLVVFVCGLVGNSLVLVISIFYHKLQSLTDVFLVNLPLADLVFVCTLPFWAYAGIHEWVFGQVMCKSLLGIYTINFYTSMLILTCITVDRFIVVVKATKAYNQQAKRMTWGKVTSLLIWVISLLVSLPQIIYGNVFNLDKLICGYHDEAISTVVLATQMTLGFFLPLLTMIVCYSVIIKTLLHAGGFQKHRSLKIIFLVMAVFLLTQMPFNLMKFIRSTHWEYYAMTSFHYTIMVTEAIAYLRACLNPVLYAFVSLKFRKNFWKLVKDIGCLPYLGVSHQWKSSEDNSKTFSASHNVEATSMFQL
CNR2, sequence (P34972 whole entry): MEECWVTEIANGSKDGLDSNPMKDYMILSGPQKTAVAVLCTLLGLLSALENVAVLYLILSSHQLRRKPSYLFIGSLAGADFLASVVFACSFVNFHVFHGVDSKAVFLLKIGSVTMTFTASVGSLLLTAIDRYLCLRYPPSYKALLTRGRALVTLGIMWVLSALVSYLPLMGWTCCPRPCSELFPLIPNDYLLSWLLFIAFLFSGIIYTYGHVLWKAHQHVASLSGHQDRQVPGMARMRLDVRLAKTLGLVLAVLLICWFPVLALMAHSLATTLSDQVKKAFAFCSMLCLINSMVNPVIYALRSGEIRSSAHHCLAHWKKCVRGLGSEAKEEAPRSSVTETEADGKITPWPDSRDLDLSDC
C5L2, sequence (Q9P296 whole entry): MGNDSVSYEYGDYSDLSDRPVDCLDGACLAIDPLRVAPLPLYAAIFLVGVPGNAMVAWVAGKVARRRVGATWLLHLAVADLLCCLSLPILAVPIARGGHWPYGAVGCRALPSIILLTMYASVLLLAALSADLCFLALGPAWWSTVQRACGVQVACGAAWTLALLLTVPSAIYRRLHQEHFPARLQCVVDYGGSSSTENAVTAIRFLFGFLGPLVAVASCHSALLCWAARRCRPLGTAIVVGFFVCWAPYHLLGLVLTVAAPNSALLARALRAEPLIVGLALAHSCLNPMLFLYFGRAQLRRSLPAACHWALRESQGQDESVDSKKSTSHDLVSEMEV
OXER1, sequence (Q8TDS5 whole entry): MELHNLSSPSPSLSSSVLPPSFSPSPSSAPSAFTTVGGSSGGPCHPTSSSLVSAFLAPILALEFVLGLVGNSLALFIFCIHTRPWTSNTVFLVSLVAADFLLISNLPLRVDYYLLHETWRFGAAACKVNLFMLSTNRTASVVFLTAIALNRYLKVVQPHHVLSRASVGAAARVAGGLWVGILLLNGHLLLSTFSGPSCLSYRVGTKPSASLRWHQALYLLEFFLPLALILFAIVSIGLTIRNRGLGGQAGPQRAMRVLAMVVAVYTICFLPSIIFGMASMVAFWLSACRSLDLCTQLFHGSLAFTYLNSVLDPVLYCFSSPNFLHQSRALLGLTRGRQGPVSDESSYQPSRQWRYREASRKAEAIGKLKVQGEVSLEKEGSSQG
GPR109B, sequence (P49019 whole entry): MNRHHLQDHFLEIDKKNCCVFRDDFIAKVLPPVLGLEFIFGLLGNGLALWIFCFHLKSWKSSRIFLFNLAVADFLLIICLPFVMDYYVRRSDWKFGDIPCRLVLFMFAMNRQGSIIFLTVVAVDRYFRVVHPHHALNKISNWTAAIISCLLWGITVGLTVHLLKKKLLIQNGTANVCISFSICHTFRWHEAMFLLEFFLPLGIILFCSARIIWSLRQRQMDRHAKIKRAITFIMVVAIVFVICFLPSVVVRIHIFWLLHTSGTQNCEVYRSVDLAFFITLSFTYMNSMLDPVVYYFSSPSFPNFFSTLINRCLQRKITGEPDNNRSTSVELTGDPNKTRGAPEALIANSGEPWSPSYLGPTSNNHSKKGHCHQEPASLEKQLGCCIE

## QATVGDVNTDRPGLLDLK (also: synthesised on Rink amide resin, C-terminal amide not given here outright) [octadecaneuropeptide (ODN)]
[1]
  % Activity, arrestin, antagonist mode, 2.5 uM: -17%
[2]
  % Activity, arrestin, antagonist mode, 2.5 uM: 3.5%
[3]
  % Activity, arrestin, antagonist mode, 2.5 uM: -1.3%
[4]
  % Activity, arrestin, antagonist mode, 2.5 uM: 16.2%
[5]
  % Activity, arrestin, antagonist mode, 2.5 uM: 4%
[6]
  % Activity, arrestin, antagonist mode, 2.5 uM: 3.6%
[7]
  % Activity, arrestin, antagonist mode, 2.5 uM: -1.3%
[8]
  % Activity, arrestin, antagonist mode, 2.5 uM: -17.7%
[9]
  % Activity, arrestin, antagonist mode, 2.5 uM: -23.3%
[10]
  % Activity, arrestin, antagonist mode, 2.5 uM: 9.3%
[11]
  % Activity, arrestin, antagonist mode, 2.5 uM: -39.7%
[12]
  % Activity, arrestin, antagonist mode, 2.5 uM: -17.2%
[13]
  % Activity, arrestin, antagonist mode, 2.5 uM: -9.6%
